# What was measured:
# [1] = target: TcdA1 from Photorhabdus luminescens (Pl-TcdA1) (P. luminescens) (UniProt Q9RN43); assay: cryo-EM structure
# [2] = target: TcdB2-TccC3 from Photorhabdus luminescens (Pl-TcdB2-TccC3) (P. luminescens) (UniProt Q8GF99); assay: BLI
# [3] = target: TcdA4 from Morganella morganii (Mm-TcdA4) (M. morganii); assay: cryo-EM structure
# [4] = target: TcdA4 from Photorhabdus luminescens (Pl-TcdA4) (P. luminescens) (UniProt Q8GF92); assay: cryo-EM structure
# [5] = target: XptA1 from Xenorhabdus nematophila (Xn-XptA1) (X. nematophila); assay: cryo-EM structure
Substance,stoichiometry N [1],Kd [2],stoichiometry N [3],stoichiometry N [4],stoichiometry N [5]
"TcdA1 from Photorhabdus luminescens (Pl-TcdA1), Q9RN43 1-2516",5,0.63 nM,,,
TcdA4 from Morganella morganii (Mm-TcdA4) (natural protein),,11.3 nM,5,,
"TcdA4 from Photorhabdus luminescens (Pl-TcdA4), Q8GF92 1-2381",,,,5,
XptA1 from Xenorhabdus nematophila (Xn-XptA1) (natural protein),,1.99 nM,,,5

# Reference: publication doi:10.1101/596536
